How the values were obtained:
[1] = molecular target: recombinant human ErbB2 extracellular domain (ErbB2-ECD) (human) (UniProt P04626); test: competitive ELISA vs biotin-Trastuzumab on ErbB2-ECD; control
[2] = molecular target: T1, human ErbB2 on ErbB2-positive cells (human, UniProt P04626 23-1255); test: cell-based or functional assay
[3] = molecular target: T2, recombinant Macaca mulatta ErbB2-ECD (Macaca mulatta, UniProt I0FM22 23-652); test: indirect ELISA, coated ErbB2-ECD
T2 construct: extracellular domain
Description: (§1) Using indirect ELISA described in Example 1, the binding activity of antibodies of this invention to recombinant ErbB2-ECD derived from different species such as mouse, rat, Macaca mulatta, Macaca fascicularis and human, was examined. Briefly. Coat 96-well ELISA plates with 1 ug/ml recombinant ErbB2-ECD of different species with 100 ul/well and incubate at 4° C. for overnight. Remove the coating solution by discarding and tapping gently on a filter paper. Add 200 ul/well blocking buffer, incubate at 37° C. for 1-2 hours. Add purified antibody of this invention and incubate at 37° C. for one hour. Wash the plate 3 times with PBST, add goat anti-mouse IgG-HRP 100 ul/well, incubate at 37° C. for one hour. Wash the plate 3 times with PBST, add 100 ul/well TMB after 15 min, add 50 ul/well 1N HCl. Read the plate with Microplate Reader at 450 nm wavelength.
(§2) Following the same method described in Example 5, the binding activity of the chimeric antibodies of this invention was examined for binding recombinant ErbB2-ECD derived from different species such as mouse, rat Macaca mulatta, Macaca fasciculari and human.

[4] = molecular target: T3, recombinant rat ErbB2-ECD (rat, UniProt P06494 23-654); test: indirect ELISA, coated ErbB2-ECD
T3 construct: extracellular domain
Description: as §1, §2

[5] = molecular target: T4, recombinant mouse ErbB2-ECD (mouse, UniProt P70424 23-653); test: indirect ELISA, coated ErbB2-ECD
T4 construct: extracellular domain
Description: as §1, §2

[6] = molecular target: T5, recombinant human ErbB2 extracellular domain (ErbB2-ECD) (human, UniProt P04626 23-652); test: capture ELISA, recombinant ErbB2-ECD
T5 construct: extracellular domain; Coated on plates or used biotin-labeled in solution (capture ELISA); also called Human ErbB2-ECD; rhErbB2
Description: (§3) The corresponding purified IgG of five antibodies of this invention were also evaluated for their binding activity to recombinant human ErbB2 by capture ELISA. The procedure is briefly described as following: The 96-well plates were coated with 0.5 μg/ml anti-ErbB2 antibody overnight, blocked by 1% BSA in PBST at 37° C. for one hour. Add serial diluted sample of biotin-human ErbB2-ECD started with 2 μg/ml with 1:5 serial dilution. Wash the plate 3 times with PBST and add 100 ul of HRP-streptavidin (1:5000) to each well. Incubate for another 40 min at 37° C. Wash the plate 3 times with PBST and add 100 ul/well of TMB to develop at RT for 15 min followed by quenching with 50 ul 1N HCl. Read the plates at 450 nm for OD's value. Calculate the binding EC50 by using Prism software and the results are in Table 8 below
The variable domains of the heavy and light chain of the anti-ErbB2 monoclonal antibodies (Table 12, above) were cloned in-frame to human IgG1 heavy-chain and kappa light-chain constant regions, respectively.

[7] = molecular target: T1, human ErbB2 on ErbB2-positive cells; test: cell-based or functional assay; remark: listed apart in the source
[8] = molecular target: T1, human ErbB2 on ErbB2-positive cells; test: cell-based or functional assay; remark: listed apart in the source
[9] = molecular target: T2, recombinant Macaca mulatta ErbB2-ECD; test: indirect ELISA, coated ErbB2-ECD 1 ug/ml
Description: as §1

[10] = molecular target: T3, recombinant rat ErbB2-ECD; test: indirect ELISA, coated ErbB2-ECD 1 ug/ml
Description: as §1

[11] = molecular target: T4, recombinant mouse ErbB2-ECD; test: indirect ELISA, coated ErbB2-ECD 1 ug/ml
Description: as §1

[12] = molecular target: T5, recombinant human ErbB2 extracellular …; test: capture ELISA, coated antibody, biotin-human ErbB2-ECD titrated
Description: as §3

[13] = molecular target: T5, recombinant human ErbB2 extracellular …; test: capture ELISA, recombinant ErbB2-ECD; remark: listed apart in the source

T4 sequence (P70424 23-653): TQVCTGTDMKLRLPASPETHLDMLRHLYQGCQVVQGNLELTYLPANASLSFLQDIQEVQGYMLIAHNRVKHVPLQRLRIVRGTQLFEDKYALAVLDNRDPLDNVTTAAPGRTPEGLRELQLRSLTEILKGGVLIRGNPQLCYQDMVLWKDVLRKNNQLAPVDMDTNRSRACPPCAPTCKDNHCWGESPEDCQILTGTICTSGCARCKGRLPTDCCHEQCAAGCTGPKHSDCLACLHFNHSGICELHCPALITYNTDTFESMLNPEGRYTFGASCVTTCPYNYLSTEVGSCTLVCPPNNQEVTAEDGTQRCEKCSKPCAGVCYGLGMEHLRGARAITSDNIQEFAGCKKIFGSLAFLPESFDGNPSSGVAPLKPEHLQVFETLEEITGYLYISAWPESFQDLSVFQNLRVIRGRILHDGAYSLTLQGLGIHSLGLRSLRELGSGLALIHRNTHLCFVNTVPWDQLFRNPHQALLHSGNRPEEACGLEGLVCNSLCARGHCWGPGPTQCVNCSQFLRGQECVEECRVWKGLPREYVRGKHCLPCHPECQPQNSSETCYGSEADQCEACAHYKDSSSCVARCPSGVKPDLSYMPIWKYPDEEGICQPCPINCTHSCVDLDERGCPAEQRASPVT
T3 sequence (P06494 23-654): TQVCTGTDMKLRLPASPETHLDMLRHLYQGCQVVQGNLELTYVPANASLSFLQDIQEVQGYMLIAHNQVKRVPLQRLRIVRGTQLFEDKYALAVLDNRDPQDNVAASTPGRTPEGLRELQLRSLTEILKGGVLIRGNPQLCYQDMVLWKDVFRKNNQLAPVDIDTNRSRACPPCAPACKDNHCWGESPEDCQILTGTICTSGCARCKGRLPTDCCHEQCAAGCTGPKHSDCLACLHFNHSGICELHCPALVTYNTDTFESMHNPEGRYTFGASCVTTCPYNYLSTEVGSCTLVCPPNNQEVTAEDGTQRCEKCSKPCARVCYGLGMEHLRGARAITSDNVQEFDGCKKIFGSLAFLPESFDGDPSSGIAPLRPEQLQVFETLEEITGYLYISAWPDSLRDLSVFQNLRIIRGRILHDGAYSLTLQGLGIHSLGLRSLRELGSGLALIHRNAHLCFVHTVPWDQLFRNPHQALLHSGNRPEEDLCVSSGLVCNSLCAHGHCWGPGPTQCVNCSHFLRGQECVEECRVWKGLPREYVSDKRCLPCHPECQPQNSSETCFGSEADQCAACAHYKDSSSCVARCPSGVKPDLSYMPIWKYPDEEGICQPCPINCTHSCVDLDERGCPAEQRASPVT

Molecule: normal human IgG (antibody)
- OD450 [1]: 2.91 OD

Molecule: normal mouse IgG (antibody)
- OD450 [1]: 2.8 OD

B1: 4H2 chimera (antibody, V domains shown)
VH: QVQLQQSGAELARPGASVKMSCKASGFTFTSYTIHWVKQRPGQGLDWIGYINPSSGYTTYNQRFKDKATLTADKSSSTAYMQLSSLTSADSAVYYCARASAYSLDYWGQGTTLTVSS
VL: DIQMTQSPSSLSASLGGKVTITCKASQDIDRYIAWYQHKPGKGPRLLIHYTSTLQPGIPSRFSGSGSGRNYSFSISNLEPEDIATYYCLKYDNLLWTFGGGTKLEIK
notes: also called 4H2 chimeric antibody
- BT474 cell proliferation inhibition IC50 (hIgG + 4H2c) [2]: 19.3 nM
- binding result [3]: binds
- binding result [4]: no binding
- binding result [5]: no binding
- EC50 [6]: 0.118 nM

B2: 4G6 chimera (antibody, V domains shown)
VH: QVQLQQSGAELARPGASVKMSCKASGYTFTSYTMHWVKQRPGQGLEWIGYINPSSAYTNYNQKFKDKATLTADKSSSTANMQLNSLTSEDSAVYYCARASAYSLDYWGQGTALTVSS
VL: DIQMTQSPSSLSASLGGKVTITCKASQDINKYIAWYQHKPGKGPRLLIHSTSTLYPGIPSRFSGSGSGRDYSFRITNLEPEDIATYYCLQYDNLLWTFGGGTKVGIR
notes: also called 4G6 chimeric antibody
- BT474 cell proliferation inhibition IC50 (hIgG + 4G6c) [2]: 36.3 nM
- binding result [3]: binds
- binding result [4]: no binding
- binding result [5]: no binding
- EC50 [6]: 0.02 nM

B3: 4G6 mouse anti-ErbB2 monoclonal antibody (antibody, mouse IgG1, V domains shown)
VH: QVQLQQSGAELARPGASVKMSCKASGYTFTSYTMHWVKQRPGQGLEWIGYINPSSAYTNYNQKFKDKATLTADKSSSTANMQLNSLTSEDSAVYYCARASAYSLDYWGQGTALTVSS
VL: DIQMTQSPSSLSASLGGKVTITCKASQDINKYIAWYQHKPGKGPRLLIHSTSTLYPGIPSRFSGSGSGRDYSFRITNLEPEDIATYYCLQYDNLLWTFGGGTKVGIR
notes: also called 4G6C9B8; IgG 4G6
- BT474 cell proliferation inhibition IC50 (hIgG + 4G6) [7]: ~1.24 nM
- Internalization rate in SKBR3 cells, FITC signal, 2-hour [8]: 18.5
- binding result [9]: binds
- binding result [10]: no binding
- binding result [11]: no binding
- EC50 [12]: 0.021 nM

B4: 5G9 chimera (antibody, V domains shown)
VH: QVQLQQSGAELARPGASVKMSCKTSGYTFSSYTIHWVKQRPGQGLDWIGYINPSSDYTAYNQKFRDKATLTADQSSNTAYMQLSSLASADSAVYYCARASAFSLDFWGQGTTLTVSS
VL: DIQMTQSPSSLSASLGGKVTISCKASHDIDRYIAWYQHKPGKGPRLLIHYTSTLQPGIPSRFSGSGSGRDYSFSISNLEPEDVATYYCLNYDNLLWTFGGGTKLEIT
notes: also called 5G9 chimeric; 5G9 chimeric antibody
- BT474 cell proliferation inhibition IC50 (hIgG + 5G9c) [2]: 43.4 nM
- binding result [3]: binds
- binding result [4]: no binding
- binding result [5]: no binding
- EC50 [6]: 0.049 nM
- EC50 [13]: 0.044 nM

B5: 5F12 mouse anti-ErbB2 monoclonal antibody (antibody, mouse IgG1, V domains shown)
VH: QVQLQQSGAELARPGASVKMSCKASGYTFTSYTMHWIKQRPGQGLEWIGYINPSSSYTNYNQNFKDKATLTADKSSSTANMQLNSLTSEDSAVYYCARASSYSLDYWGQGTALTVSS
VL: DIQMTQSPSSLSTSLGGKVTITCKASQDINKYIAWYQHKPGKGPRLLIHSTSTLYPGIPSRFSGSGSGKDYSFRITNLEPEDIATYYCLQYDNLLWTFGGGTKLGIR
notes: also called 5F12E5A8; IgG 5F12
- BT474 cell proliferation inhibition IC50 (hIgG + 5F12) [7]: 0.7 nM
- Internalization rate in SKBR3 cells, FITC signal, 2-hour [8]: 22.6
- binding result [9]: binds
- binding result [10]: no binding
- binding result [11]: no binding
- EC50 [12]: 0.156 nM

Source: patent US20200002434A1 (BIOSION, published 2020)
